B1: YU536-D04 (IgG) (antibody, V domains shown)
VH: QVQLVQSGGGLVQPGGSLRLSCAASGLTVSSNYMSWVRQAPGKGLEWVSVIYSGGSTYYADSVKGRFIISRDNSKNTLYLQMNSLRAEDTAVYYCARDLVVMGLDVWGKGTLVTVSS
VL: DIQLTQSPSSLSASVGDRVTITCRASQGISSYLAWYQQKPGKAPKLLIYAASTLQSGVPSRFSGSGSGTDFTLTISSLQPEDFATYYCQQLNSYPITFGQGTKLEIK
B2: YU536-D04 (antibody, V domains shown)
VH: QVQLVQSGGGLVQPGGSLRLSCAASGLTVSSNYMSWVRQAPGKGLEWVSVIYSGGSTYYADSVKGRFIISRDNSKNTLYLQMNSLRAEDTAVYYCARDLVVMGLDVWGKGTLVTVSS
VL: DIQLTQSPSSLSASVGDRVTITCRASQGISSYLAWYQQKPGKAPKLLIYAASTLQSGVPSRFSGSGSGTDFTLTISSLQPEDFATYYCQQLNSYPITFGQGTKLEIK
B3: YU536-D04 (Fab) (Fab, V domains shown)
VH: QVQLVQSGGGLVQPGGSLRLSCAASGLTVSSNYMSWVRQAPGKGLEWVSVIYSGGSTYYADSVKGRFIISRDNSKNTLYLQMNSLRAEDTAVYYCARDLVVMGLDVWGKGTLVTVSS
VL: DIQLTQSPSSLSASVGDRVTITCRASQGISSYLAWYQQKPGKAPKLLIYAASTLQSGVPSRFSGSGSGTDFTLTISSLQPEDFATYYCQQLNSYPITFGQGTKLEIK
B4: YU537-H11 (Fab) (Fab, V domains shown)
VH: EVQLLESGGGLIQPGGSLRLSCAASGLTVSSNYMSWVRQAPGKGLEWVSVIYSGGSTYYADSVKGRFTISRDNSKNALYLQMNSLRAEDTAVYYCARGESGSPYGMDVWGQGTLVTVSS
VL: QSVLTQPPSVSAAPGQKVTISCSGSSSNIGNNYVSWYQQLPGTAPKLLIYDTNKRPSGIPDRFSGSKSGTSATLGITGLQTGDEADYYCATWDSSLSVGVFGGGTKLTVL
B5: YU537-H11 (antibody, V domains shown)
VH: EVQLLESGGGLIQPGGSLRLSCAASGLTVSSNYMSWVRQAPGKGLEWVSVIYSGGSTYYADSVKGRFTISRDNSKNALYLQMNSLRAEDTAVYYCARGESGSPYGMDVWGQGTLVTVSS
VL: QSVLTQPPSVSAAPGQKVTISCSGSSSNIGNNYVSWYQQLPGTAPKLLIYDTNKRPSGIPDRFSGSKSGTSATLGITGLQTGDEADYYCATWDSSLSVGVFGGGTKLTVL
B6: STE90-C11 (Fab) (Fab, V domains shown)
VH: QVQLVESGGGLVQPGGSLRLSCAASGLTVSSNYMSWVRQAPGKGLEWVSVIYSGGSTYYADSVKGRFTISRDDSKNTLYLQMNSLRAEDTAVYYCARDVADAFDIWGQGTMVTVSS
VL: DIVMTQSPSFLSASVGDRVTITCRASQGISSYLAWYQQKPGKAPKLLIYAASTLQSGVPSRFSGSGSGTEFTLTISSLQPEDFATYYCQQLNSYPPFTFGPGTKVDIK
B7: STE90-C11 (antibody, V domains shown)
VH: QVQLVESGGGLVQPGGSLRLSCAASGLTVSSNYMSWVRQAPGKGLEWVSVIYSGGSTYYADSVKGRFTISRDDSKNTLYLQMNSLRAEDTAVYYCARDVADAFDIWGQGTMVTVSS
VL: DIVMTQSPSFLSASVGDRVTITCRASQGISSYLAWYQQKPGKAPKLLIYAASTLQSGVPSRFSGSGSGTEFTLTISSLQPEDFATYYCQQLNSYPPFTFGPGTKVDIK
B8: YU505-A02 (antibody, V domains shown)
VH: QVQLVESGAEVKKPGSSVKVSCKASGGTFSSYAISWVRQAPGQGLEWMGGIIPIFGTANYAQKFQGRVTITADESTSTAYMELSSLRSEDTAVYYCARQIWAYDSSGYPVPAEYFQHWGQGTLVTVSS
VL: QSVLTQPPSVSGAPGQRVTISCTGSSSNIGAGYDVHWYQQLPGTAPKLLIYGNSNRPSGVPDRFSGSKSGTSASLAITGLQAEDEADYYCQSYDSSLSGVVFGGGTKLTVL

Tests used:
S1-His [1] = target: T1, S1-His (SARS-CoV-2, UniProt P0DTC2 16-685); assay: BLI, antibody on FAB2G capture sensor, S1-His in solution
[2] = target: T2, SARS-CoV-2 glycoprotein S (spike) on infectious virus (SARS-CoV-2, UniProt P0DTC2 14-1273); assay: cell-based or functional assay
[3] = target: receptor binding domain (RBD) of the S1-subunit of SARS-CoV-2 glycoprotein S (SARS-CoV-2, UniProt P0DTC2 319-541); assay: titration ELISA, IgG on RBD
S1-His [4] = target: T1, S1-His; assay: BLI, antibody on Protein A sensor, S1-His in solution
[5] = target: T2, SARS-CoV-2 glycoprotein S (spike) on …; assay: cell-based or functional assay; remark: listed apart in the source
SARS-CoV-1 Spike protein = SARS-CoV-1 Spike protein (SARS-CoV-1, UniProt P59594 14-667); assay: titration ELISA
HCoV-229E Spike protein = target: T3, HCoV-229E Spike protein (HCoV-229E, UniProt P15423 16-560); assay: titration ELISA
T3 sequence: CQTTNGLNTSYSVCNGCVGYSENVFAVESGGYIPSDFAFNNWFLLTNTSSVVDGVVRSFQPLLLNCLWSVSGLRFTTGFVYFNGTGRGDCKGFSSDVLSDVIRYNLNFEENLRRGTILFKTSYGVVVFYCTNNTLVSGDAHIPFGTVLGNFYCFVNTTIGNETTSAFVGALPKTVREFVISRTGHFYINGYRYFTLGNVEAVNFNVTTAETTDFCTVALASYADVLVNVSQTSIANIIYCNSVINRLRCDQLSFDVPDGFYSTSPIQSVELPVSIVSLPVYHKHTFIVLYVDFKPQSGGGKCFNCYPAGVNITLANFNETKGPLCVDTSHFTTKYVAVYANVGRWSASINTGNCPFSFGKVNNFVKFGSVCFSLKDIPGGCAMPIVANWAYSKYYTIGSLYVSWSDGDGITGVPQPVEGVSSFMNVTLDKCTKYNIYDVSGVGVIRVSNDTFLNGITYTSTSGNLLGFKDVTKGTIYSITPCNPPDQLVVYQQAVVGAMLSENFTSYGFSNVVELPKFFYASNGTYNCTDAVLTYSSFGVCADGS

MERS-CoV Spike protein = target: T4, MERS-CoV Spike protein (MERS-CoV, UniProt K9N5Q8 18-725); assay: titration ELISA
T4 sequence: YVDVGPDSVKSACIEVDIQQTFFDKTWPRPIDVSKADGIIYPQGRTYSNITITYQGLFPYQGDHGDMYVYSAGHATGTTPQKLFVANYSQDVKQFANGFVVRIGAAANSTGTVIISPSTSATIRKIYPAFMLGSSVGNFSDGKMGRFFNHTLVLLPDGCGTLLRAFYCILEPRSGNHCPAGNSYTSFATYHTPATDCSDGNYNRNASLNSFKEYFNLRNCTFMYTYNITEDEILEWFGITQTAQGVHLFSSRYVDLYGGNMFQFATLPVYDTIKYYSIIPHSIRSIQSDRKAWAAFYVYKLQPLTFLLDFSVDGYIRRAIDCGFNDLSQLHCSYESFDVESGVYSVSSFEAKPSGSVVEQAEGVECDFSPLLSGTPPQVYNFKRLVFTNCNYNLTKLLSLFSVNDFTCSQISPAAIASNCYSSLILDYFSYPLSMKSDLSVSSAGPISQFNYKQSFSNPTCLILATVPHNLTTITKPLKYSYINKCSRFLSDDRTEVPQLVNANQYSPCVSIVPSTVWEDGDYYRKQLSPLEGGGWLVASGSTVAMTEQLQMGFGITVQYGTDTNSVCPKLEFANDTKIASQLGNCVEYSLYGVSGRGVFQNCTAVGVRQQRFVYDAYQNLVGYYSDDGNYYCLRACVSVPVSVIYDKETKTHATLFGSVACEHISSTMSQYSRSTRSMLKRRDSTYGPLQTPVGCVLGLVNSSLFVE

HCov-HKU1 Spike protein = target: T5, HCov-HKU1 Spike protein (HCoV-HKU1, UniProt Q5MQD0 13-760); assay: titration ELISA
T5 sequence: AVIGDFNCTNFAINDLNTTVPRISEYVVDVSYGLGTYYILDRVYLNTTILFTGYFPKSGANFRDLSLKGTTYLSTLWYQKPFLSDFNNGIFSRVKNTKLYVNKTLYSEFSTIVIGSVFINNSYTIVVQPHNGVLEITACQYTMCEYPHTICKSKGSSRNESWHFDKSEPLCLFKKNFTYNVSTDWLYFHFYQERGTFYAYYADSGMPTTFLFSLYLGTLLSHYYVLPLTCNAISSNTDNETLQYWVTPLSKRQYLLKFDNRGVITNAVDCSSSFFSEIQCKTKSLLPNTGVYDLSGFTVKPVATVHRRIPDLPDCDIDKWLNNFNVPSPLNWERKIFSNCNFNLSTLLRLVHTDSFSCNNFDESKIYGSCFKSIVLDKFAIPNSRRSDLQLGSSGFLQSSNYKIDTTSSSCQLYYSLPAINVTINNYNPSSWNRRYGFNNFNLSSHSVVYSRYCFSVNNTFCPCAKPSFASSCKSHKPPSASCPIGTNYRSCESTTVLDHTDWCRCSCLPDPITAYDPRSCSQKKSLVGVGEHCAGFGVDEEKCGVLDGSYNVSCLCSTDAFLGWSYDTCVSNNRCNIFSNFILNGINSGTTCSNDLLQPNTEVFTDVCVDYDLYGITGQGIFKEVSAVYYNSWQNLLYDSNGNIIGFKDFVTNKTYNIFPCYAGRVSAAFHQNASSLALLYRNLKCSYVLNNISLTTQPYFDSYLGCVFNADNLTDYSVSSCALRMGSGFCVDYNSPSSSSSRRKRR

HCoV-NL63 Spike protein = target: T6, HCoV-NL63 Spike protein (HCoV-NL63, UniProt Q6Q1S2 19-717); assay: titration ELISA
T6 sequence: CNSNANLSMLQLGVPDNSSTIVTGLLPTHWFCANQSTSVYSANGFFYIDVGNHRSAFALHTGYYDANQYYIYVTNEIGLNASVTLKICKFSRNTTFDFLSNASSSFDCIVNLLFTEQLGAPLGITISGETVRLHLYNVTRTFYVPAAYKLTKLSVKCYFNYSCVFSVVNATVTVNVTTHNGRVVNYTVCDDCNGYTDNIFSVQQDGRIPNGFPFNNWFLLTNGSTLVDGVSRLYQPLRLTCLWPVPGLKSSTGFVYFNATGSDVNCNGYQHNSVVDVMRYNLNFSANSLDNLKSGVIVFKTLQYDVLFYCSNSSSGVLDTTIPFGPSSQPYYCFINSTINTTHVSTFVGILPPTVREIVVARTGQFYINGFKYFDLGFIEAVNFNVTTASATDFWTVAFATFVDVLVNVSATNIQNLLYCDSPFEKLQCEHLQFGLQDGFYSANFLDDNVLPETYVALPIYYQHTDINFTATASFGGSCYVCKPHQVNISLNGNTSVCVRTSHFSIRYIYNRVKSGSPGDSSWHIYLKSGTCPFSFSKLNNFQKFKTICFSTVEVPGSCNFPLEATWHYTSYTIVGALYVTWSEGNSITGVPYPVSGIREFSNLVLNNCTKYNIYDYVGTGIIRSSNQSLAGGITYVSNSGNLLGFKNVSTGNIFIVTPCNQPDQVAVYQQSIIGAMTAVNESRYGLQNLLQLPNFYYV

[6] = target: RBD-mFc (Sino Biologicals) (SARS-CoV-2, UniProt P0DTC2 319-541); assay: BLI, RBD-mFc on anti-mouse Fc capture sensor, Fab in solution

Binder	binding result (SARS-CoV-1 Spike protein)	binding result (HCoV-229E Spike protein)	binding result (MERS-CoV Spike protein)	binding result (HCov-HKU1 Spike protein)	binding result (HCoV-NL63 Spike protein)	Kd [6] [nM]	other results
B1							Kd (S1-His [1]): 5.49 nM; Virus neutralization (24-well titration) TCID50 (IgG) [2]: 0.4 nM; Virus neutralization (96-well titration) TCID50 (IgG) [2]: 0.2 nM; EC50 [3]: 1.1 nM; Kd (S1-His [4]): 23 nM; Neutralization [5]: 0.4 nM
B2	no binding	no binding	no binding	no binding	no binding		
B3						17.5	
B4						61.1	
B5	no binding	no binding	no binding	no binding	no binding		
B6						8.14	
B7	no binding	no binding	no binding	no binding	no binding		
B8	no binding	no binding	no binding	no binding	no binding		

Source: patent US20240059758A1 (CORAT THERAPEUTICS, published 2024)
